We go through 53 molecules from US20190177366A1 (published 2019).

Ends that are not written are not given here.

In the test the target is T1, proprotein convertase subtilisin/kexin type 9 (PCSK9) (human, UniProt Q8NBP7 31-152).
T1 construct: domain: prodomain; Recombinant; tag not written as a part; also called rec.PCSK9; His-PCSK9
T1 sequence (Q8NBP7 31-152 limits assumed, chain 1 of 2): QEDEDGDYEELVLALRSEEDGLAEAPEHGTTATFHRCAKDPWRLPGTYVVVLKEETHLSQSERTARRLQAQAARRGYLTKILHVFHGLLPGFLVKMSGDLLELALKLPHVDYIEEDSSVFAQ
T1 sequence (Q8NBP7 153-692 limits assumed, chain 2 of 2): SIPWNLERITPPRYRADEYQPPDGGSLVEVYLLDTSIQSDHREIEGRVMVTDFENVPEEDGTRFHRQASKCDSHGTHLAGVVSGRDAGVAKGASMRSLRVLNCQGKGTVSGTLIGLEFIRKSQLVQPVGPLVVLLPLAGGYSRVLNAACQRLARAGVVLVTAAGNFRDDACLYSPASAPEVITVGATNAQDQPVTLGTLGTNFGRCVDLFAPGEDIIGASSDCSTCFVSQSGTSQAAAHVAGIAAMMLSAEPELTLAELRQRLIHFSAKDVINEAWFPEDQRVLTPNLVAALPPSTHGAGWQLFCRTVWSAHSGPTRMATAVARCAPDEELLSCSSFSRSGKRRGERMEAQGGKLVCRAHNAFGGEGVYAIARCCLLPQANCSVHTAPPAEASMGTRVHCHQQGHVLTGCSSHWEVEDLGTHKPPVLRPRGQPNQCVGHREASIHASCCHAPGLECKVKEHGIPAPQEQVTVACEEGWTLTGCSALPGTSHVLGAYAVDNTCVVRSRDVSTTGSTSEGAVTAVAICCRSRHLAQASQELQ
Kind of test: phage spot ELISA. A general note: In an ELISA, binding on a coated surface is turned into a signal by an enzyme label.
Turning to TAFTSWEEYLDWVGSGNVRCYRDVPSCS (not fully specified (bridges); cysteine pairing not given here, phage clone) [SEQ ID NO 329], the binding result was “binds”.

In the case of TAFTSWEEYLDWVGSGDCLRYRVGSSCS (not fully specified (bridges); cysteine pairing not given here, phage clone) [SEQ ID NO 360], the binding result is “binds”.

With TAFTSWEEYLDWVGSGNCWSSLRGICENLG (phage clone) [SEQ ID NO 307], the binding result is “binds”.

For TAFTSWEEYLDWVGSGMVYVDRGVRVFT (phage clone) [SEQ ID NO 322], the binding result is recorded as “binds”.

Consider TAFTSWEEYLDWVGSGCVKVGLSWIGDCNS (phage clone) [SEQ ID NO 334], for which the binding result is recorded as “binds”.

On to TAFTSWEEYLDWVGSGKLWNLTRISS (phage clone) [SEQ ID NO 312], for which the binding result is “binds”.

Regarding TAFTSWEEYLDWVGSGGHPLWNLSRI (phage clone) [SEQ ID NO 316], the binding result is “binds”.

As for TAFTSWEEYLDWVGSGGREMRSVIQM (phage clone) [SEQ ID NO 344], the binding result is reported as “binds”.

With TAFTSWEEYLDWVGSGMPWNLARIER (phage clone) [SEQ ID NO 318], the binding result is “binds”.

Take TAFTSWEEYLDWVGSGQCYPWCRL (phage clone) [SEQ ID NO 338]: the binding result is given as “binds”.

With TAFTSWEEYLDWVGSGQTTYLRVSSS (phage clone) [SEQ ID NO 341], the binding result was “binds”.

Consider TAFTSWEEYLDWVGSGVPWNLARL (phage clone) [SEQ ID NO 314], for which the binding result is “binds”.

For the molecule TAFTSWEEYLDWVGSGVPWNLAKI (phage clone) [SEQ ID NO 315], the binding result was “binds”.

Take TAFTSWEEYLDWVGSGKLWNLGRV (phage clone) [SEQ ID NO 306]: the binding result was “binds”.

Take TAFTSWEEYLDWVGSGGDCGYHYMCSMT (not fully specified (bridges); cysteine pairing not given here, phage clone) [SEQ ID NO 345]: the binding result is recorded as “binds”.

Take TAFTSWEEYLDWVGSGSPCRVGYTPC (not fully specified (bridges); cysteine pairing not given here, phage clone) [SEQ ID NO 351]: the binding result was “binds”.

TAFTSWEEYLDWVGSGNPTYWLTRIS (phage clone) [SEQ ID NO 331]: the binding result is on record as “binds”.

As for TAFTSWEEYLDWVGSGKCDSHYIRGVVACH (phage clone) [SEQ ID NO 356], the binding result is “binds”.

Regarding TAFTSWEEYLDWVGSGEDVVCYGRVDYMPLCV (phage clone) [SEQ ID NO 330], the binding result is “binds”.

With TAFTSWEEYLDWVGSGRGEVYDKGGVIVHL (phage clone) [SEQ ID NO 343], the binding result is “binds”.

On to TAFTSWEEYLDWVGSGQELPNHRRLS (phage clone) [SEQ ID NO 346], for which the binding result is “binds”.

Take TAFTSWEEYLDWVGSGALWNMRRVESVAFR (phage clone) [SEQ ID NO 319]: the binding result is “binds”.

TAFTSWEEYLDWVGSGKMTHMKAD (phage clone) [SEQ ID NO 357]: the binding result is given as “binds”.

On to TAFTSWEEYLDWVGSGVLWNHSRI (phage clone) [SEQ ID NO 308], for which the binding result is listed as “binds”.

On to TAFTSWEEYLDWVGSGGCGYRYMCDMINGL (phage clone) [SEQ ID NO 358], for which the binding result is reported as “binds”.

On to TAFTSWEEYLDWVGSGPRTYLRGLVD (phage clone) [SEQ ID NO 340], for which the binding result is “binds”.

Turning to TAFTSWEEYLDWVGSGGEYLWNLKRLES (phage clone) [SEQ ID NO 320], the binding result was “binds”.

With TAFTSWEEYLDWVGSGGDCYPHCRLV (not fully specified (bridges); cysteine pairing not given here, phage clone) [SEQ ID NO 359], the binding result is on record as “binds”.

For TAFTSWEEYLDWVGSGGPWNLNRV (phage clone) [SEQ ID NO 309], the binding result is on record as “binds”.

Take TAFTSWEEYLDWVGSGSCSWNVERIRGCSV (phage clone) [SEQ ID NO 311]: the binding result is “binds”.

Consider TAFTSWEEYLDWVGSGKNNYAYLINMPRAPGI (phage clone) [SEQ ID NO 325], for which the binding result is listed as “binds”.

Take TAFTSWEEYLDWVGSGCMEAWQCSLA (phage clone) [SEQ ID NO 337]: the binding result is listed as “binds”.

With TAFTSWEEYLDWVGSGCPFYDWRCSDFS (not fully specified (bridges); cysteine pairing not given here, phage clone) [SEQ ID NO 328], the binding result was “binds”.

For the molecule TAFTSWEEYLDWVGSGSSTWHFVGGVRV (phage clone) [SEQ ID NO 354], the binding result is listed as “binds”.

Turning to TAFTSWEEYLDWVGSGACLNHFVSGNMIRC (phage clone) [SEQ ID NO 327], the binding result is recorded as “binds”.

Regarding TAFTSWEEYLDWVGSGNELWNINRLRSS (phage clone) [SEQ ID NO 317], the binding result is reported as “binds”.

As to TAFTSWEEYLDWVGSGPHSYWLDRVQ (phage clone) [SEQ ID NO 332], the binding result is listed as “binds”.

Turning to TAFTSWEEYLDWVGSGGCVKYRGSVSCQESKT (phage clone) [SEQ ID NO 323], the binding result was “binds”.

On to TAFTSWEEYLDWVGSGPLLWNLQKVH (phage clone) [SEQ ID NO 310], for which the binding result is “binds”.

Turning to TAFTSWEEYLDWVGSGCLDRSGGCYTREGYLS (phage clone) [SEQ ID NO 353], the binding result was “binds”.

In the case of TAFTSWEEYLDWVGSGCWTYLRGGCSVT (not fully specified (bridges); cysteine pairing not given here, phage clone) [SEQ ID NO 339], the binding result is on record as “binds”.

Consider TAFTSWEEYLDWVGSGVCSDHYIGGKEVRC (phage clone) [SEQ ID NO 348], for which the binding result is recorded as “binds”.

Turning to TAFTSWEEYLDWVGSGSYRGAWSVFGGSTD (phage clone) [SEQ ID NO 336], the binding result was “binds”.

As for TAFTSWEEYLDWVGSGCYPLCRVG (phage clone) [SEQ ID NO 355], the binding result is “binds”.

Regarding TAFTSWEEYLDWVGSGCYPLCRVL (phage clone) [SEQ ID NO 364], the binding result is “binds”.

Regarding TAFTSWEEYLDWVGSGRGGYELNIPR (phage clone) [SEQ ID NO 326], the binding result is given as “binds”.

Turning to TAFTSWEEYLDWVGSGNCARLYSHQRDYSQVC (phage clone) [SEQ ID NO 352], the binding result is listed as “binds”.

Turning to TAFTSWEEYLDWVGSGEHQFYSYRGVDVYR (phage clone) [SEQ ID NO 324], the binding result was “binds”.

On to TAFTSWEEYLDWVGSGVVLWNHSRIL (phage clone) [SEQ ID NO 313], for which the binding result is on record as “binds”.

For the molecule TAFTSWEEYLDWVGSGTRYADRGVMVYSLS (phage clone) [SEQ ID NO 321], the binding result is reported as “binds”.

For TAFTSWEEYLDWVGSGSETGLGTYYG (phage clone) [SEQ ID NO 350], the binding result is “binds”.

TAFTSWEEYLDWVGSGCCSYGYEKCCNG [SEQ ID NO 349]: the binding result is listed as “binds”.

As to TAFTSWEEYLDWVGSGNMCYLRGKMDCNIV (phage clone) [SEQ ID NO 347], the binding result is “binds”.
